The values below come from patent publication US20250129146A1, “COMBINED CANCER THERAPY WITH AN EPITHELIAL CELL ADHESION MOLECULE (EPCAM) INHIBITOR AND A WNT INHIBITOR” (ACADEMIA SINICA, priority 2021, published 2025).

One experiment concerns the target T1, EpCAM (Homo sapiens, UniProt P16422).
T1 construct: HEK293T cells were transfected with full length or EGF like-domain deletion mutant EpCAM-V5; V5; expressed in transfected cells; host or cells: HEK293T
T1 sequence (P16422 24-314): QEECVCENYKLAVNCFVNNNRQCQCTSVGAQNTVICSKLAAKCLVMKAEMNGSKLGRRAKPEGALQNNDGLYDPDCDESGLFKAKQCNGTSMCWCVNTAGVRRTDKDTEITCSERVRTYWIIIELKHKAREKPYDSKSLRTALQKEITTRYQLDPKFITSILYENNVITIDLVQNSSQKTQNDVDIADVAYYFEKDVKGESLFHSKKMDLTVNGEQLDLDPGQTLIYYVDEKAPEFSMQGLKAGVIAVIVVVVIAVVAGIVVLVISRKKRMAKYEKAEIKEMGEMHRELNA
The note with it: general description of other anti-EpCAM antibodies; cited from earlier work.

In a further experiment the test system is TACE. Nature of the experiment: TACE activity assay. The class given is cell-based, human. The note with it: HCT116 and HT29 cells; 250 ng/mL EpEX-His or 100 ng/mL Wnt3A for 8 h, or combination. The procedure:
Cells were seeded overnight in 24-well plate ([…] cells per well) and further treated with 250 ng/mL EpEX-His or 100 ng/mL Wnt3A (R&D Systems) for 8 h. Then, TACE activity was measured using the InnoZyme TACE activity kit (Merck). In brief, cell lysates were prepared with RIPA buffer and loaded into a TACE antibody-coated plate and incubated at RT for 1 h with slight shaking. Further, the lysates were removed and the plate was washed three times. Substrate was added into each well and incubated for 5 h at 37° C. Finally, the fluorescence signal of the reaction product was detected at excitation of 324 nm and emission of 405 nm using a microplate reader.

Another experiment deals with T2, recombinant FZD6 (Homo sapiens, UniProt O60353).
T2 construct: purchased Proteintech
T2 sequence (O60353 19-706): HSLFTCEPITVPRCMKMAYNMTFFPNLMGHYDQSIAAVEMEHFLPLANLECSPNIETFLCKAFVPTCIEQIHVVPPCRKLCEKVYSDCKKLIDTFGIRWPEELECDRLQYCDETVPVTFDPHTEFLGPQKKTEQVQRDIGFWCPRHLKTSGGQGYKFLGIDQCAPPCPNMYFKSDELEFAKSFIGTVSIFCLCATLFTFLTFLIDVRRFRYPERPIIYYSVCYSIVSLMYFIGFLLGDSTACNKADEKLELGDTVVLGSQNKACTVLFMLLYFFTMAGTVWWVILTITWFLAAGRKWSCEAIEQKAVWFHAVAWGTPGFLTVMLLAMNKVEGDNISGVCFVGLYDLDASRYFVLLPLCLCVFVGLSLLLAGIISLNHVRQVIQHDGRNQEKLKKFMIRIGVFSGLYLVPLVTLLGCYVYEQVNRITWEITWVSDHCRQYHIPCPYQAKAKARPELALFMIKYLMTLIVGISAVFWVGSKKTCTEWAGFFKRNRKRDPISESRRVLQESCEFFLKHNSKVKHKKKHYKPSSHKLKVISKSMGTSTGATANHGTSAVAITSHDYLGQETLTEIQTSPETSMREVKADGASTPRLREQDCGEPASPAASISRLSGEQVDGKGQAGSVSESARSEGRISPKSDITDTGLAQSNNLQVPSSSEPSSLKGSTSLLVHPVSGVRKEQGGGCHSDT
Put plainly: ELISA of EpEX binding to Wnt receptor-coated plates (FZD6). Particulars: EpEX-His alone, 2 hours; optical density at 450 nm. The procedure: (§1) For ELISA, wells (at least 6 wells per single protein) were coated with recombinant FZD6 (Proteintech), recombinant FZD7 (Proteintech), recombinant LRP5 (Proteintech), recombinant LRP6 (Proteintech) overnight at 4° C. The wells were then blocked with 1% BSA and treated with EpEX-his (Produced in house by Expi293 Expression System) for 2 hours. Otherwise, EpEX-His was incubated with EpAb2-6 overnight and the complex was used to treat the protein-coated plates for 2 hours. Further anti-His antibody (abeam) was used and TMB was performed to record optical density at 450 nm.
A general note: An ELISA detects its analyte on a solid surface through an enzyme-linked reagent.

The target of another experiment is T3, recombinant LRP6 (Homo sapiens, UniProt O75581).
T3 construct: purchased Proteintech
T3 sequence (O75581 20-1613): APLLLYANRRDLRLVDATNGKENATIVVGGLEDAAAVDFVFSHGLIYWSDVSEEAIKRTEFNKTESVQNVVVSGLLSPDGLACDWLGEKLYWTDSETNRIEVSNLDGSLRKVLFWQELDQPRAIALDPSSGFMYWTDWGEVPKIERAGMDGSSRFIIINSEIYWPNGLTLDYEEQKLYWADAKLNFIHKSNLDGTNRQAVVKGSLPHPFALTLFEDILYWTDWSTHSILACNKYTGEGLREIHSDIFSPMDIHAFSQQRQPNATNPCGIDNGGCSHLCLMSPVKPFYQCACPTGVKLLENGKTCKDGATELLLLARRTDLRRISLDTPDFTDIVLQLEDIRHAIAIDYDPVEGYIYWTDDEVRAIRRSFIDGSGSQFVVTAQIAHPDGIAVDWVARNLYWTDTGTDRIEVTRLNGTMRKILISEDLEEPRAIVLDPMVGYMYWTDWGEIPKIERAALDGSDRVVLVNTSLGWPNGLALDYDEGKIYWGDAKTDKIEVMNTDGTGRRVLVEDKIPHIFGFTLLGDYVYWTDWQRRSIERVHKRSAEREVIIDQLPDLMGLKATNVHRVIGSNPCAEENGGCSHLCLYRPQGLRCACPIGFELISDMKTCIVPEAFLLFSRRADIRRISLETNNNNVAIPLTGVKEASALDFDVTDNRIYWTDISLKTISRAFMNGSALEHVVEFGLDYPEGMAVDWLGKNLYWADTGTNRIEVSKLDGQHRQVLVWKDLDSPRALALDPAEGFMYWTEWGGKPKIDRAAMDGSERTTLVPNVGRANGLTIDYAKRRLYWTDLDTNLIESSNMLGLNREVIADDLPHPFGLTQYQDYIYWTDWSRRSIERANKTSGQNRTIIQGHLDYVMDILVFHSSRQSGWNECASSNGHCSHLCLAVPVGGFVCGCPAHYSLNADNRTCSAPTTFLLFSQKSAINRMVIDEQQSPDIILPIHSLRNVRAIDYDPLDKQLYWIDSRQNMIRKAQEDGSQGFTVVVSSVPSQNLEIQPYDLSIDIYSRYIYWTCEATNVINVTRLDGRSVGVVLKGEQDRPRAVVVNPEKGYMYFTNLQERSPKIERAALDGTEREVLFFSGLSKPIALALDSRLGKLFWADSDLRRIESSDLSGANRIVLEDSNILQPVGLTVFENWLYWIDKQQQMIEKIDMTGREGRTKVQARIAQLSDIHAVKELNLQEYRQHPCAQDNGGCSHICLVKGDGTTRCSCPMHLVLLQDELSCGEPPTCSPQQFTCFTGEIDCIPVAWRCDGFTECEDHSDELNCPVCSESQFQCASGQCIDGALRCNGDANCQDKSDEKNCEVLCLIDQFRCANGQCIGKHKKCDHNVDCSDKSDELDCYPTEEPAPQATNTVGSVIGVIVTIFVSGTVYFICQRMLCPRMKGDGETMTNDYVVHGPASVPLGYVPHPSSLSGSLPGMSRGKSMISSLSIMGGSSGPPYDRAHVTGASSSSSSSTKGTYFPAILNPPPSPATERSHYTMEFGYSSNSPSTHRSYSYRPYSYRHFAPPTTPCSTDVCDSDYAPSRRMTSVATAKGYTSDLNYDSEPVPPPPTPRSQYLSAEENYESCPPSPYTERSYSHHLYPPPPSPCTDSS
Put plainly: ELISA of EpEX binding to Wnt receptor-coated plates (LRP6). The note with it: EpEX-His alone, 2 hours; optical density at 450 nm. Here is the method:
as §1

In a further experiment the test system is HCT116 cells. Put plainly: Metastatic animal model of human CRC (HCT116 cells via tail vein). It counts as in vivo, NOD/SCID mice. The procedure:
All animal experiments were approved and performed according to the regulations from the IACUC at Academia Sinica. HCT116 cells (1×10^6) were injected via tail vein for the metastatic model. Otherwise, 2×10^5 HCT116 cells with luciferase were surgically transplanted into the cecum wall for the orthotopic model. Male NOD/SCID mice, approximately 6 to 8 weeks old, were used for animal experiments (n=5 and n=6 for each treatment group in metastatic and orthotopic models respectively). At 72-h post-injection/transplantation, mice were randomly distributed into four different treatment groups. For the treatments, animals were injected with 20 mg/kg IgG or EpAb2-6 via tail vein twice a week for four weeks, or fed by oral gavage with either vehicle [0.5% methylcellulose (Sigma-Aldrich) and 0.5% Tween80 (Sigma-Aldrich)] or 5 mg/kg LGK974 (MedChemExpress) formulated with the vehicle on alternating days for four weeks, or animals were treated with the combination of both inhibitor and antibody. For the metastatic model, survival was the main endpoint. For the orthotopic model, tumor progression was monitor using bioluminescence imaging. To image the tumors, intraperitoneal injection of D-Luciferin (GOLD BIO) was performed, and images were taken 10 min post-injection.

Entries after “also recorded” stand apart in the source; their conditions may differ.

Take “MT201: adecatumumab, a human anti-EpCAM antibody that was subjected to clinical trials [reference compound]”: the EpCAM domains bound entry with EpCAM is “target only the well-described EGF I domain of EpCAM; also recorded: binding to domain I only”.

B1: Wnt3A: recombinant Wnt3A (R & D systems) (protein, UniProt P56704 19-352, looked up)
Protein Wnt-3a: SYPIWWSLAVGPQYSSLGSQPILCASIPGLVPKQLRFCRNYVEIMPSVAEGIKIGIQECQHQFRGRRWNCTTVHDSLAIFGPVLDKATRESAFVHAIASAGVAFAVTRSCAEGTAAICGCSSRHQGSPGKGWKWGGCSEDIEFGGMVSREFADARENRPDARSAMNRHNNEAGRQAIASHMHLKCKCHGLSGSCEVKTCWWSQPDFRAIGDFLKDKYDSASEMVVEKHRESRGWVETLRPRYTYFKVPTERDLVYYEASPNFCEPNPETGSFGTRDRTCNVSSHGIDGCDLLCCGRGHNARAERRREKCRCVFHWCCYVSCQECTRVYDVHTCK
Turning to B1, the TACE activity entry in the experiment with TACE is given as “enhanced”.

B2: EpEX: extracellular domain of EpCAM, produced in house by Expi293 Expression System (protein)
chain: T1 sequence (P16422 24-314)
Take B2: the “EpEX binding to FZD6” value with recombinant FZD6 is “bind with all receptor proteins”. In addition, the “EpEX binding to LRP6” value with recombinant LRP6 is recorded as “bind with all receptor proteins”. The TACE activity result in the experiment on TACE is recorded as “enhanced”.

B3: EpAb2-6: anti-EpCAM (EpEX) neutralizing monoclonal antibody produced in mice by hybridoma; VH SEQ ID NO: 15, VL SEQ ID NO: 16 (antibody, V domains shown)
VH: VKLQESGPELKKPGETVKISCKASGYTFTDYSMHWVKQAPGKGLKWMGWINTETGEPTYADDFKGRFAFSLETSASTAYLQINNLKNEDTATYFCARTAVYWGQGTTVTVSS
VL: DIQMTQSPSSLSASLGERVSLTCRASQEISVSLSWLQQEPDGTIKRLIYATSTLDSGVPKRFSGSRSGSDYSLTISSLESEDFVDYYCLQYASYPWTFGGGTKLEIK
In the case of B3, the animal survival result with HCT116 cells (20 mg/kg EpAb2-6 via tail vein twice a week, 5 mg/kg LGK974 oral gavage on alternating days, four weeks) is “can prolong animal survival; also recorded: could prolong animal survival”. The “mice died by the end of the study” value with HCT116 cells (n=5 per group) was 2 out of 5.
